From article PMC8569552, “Basolateral protein Scribble binds phosphatase PP1 to establish a signaling network maintaining apicobasal polarity” (The Journal of Biological Chemistry, 2021)

Target: the molecule itself
Assay: native gel or EMSA; BN-PAGE (Native-PAGE Novex Bis-Tris) of 1% Triton X-100 lysates of DLD20-2 cells expressing the tagged protein, no cross-linking; blot probed for GFP

B1: sLUR-517GFP (domain or fragment, human, UniProt Q14160 1-517, looked up)
chain: MLKCIPLWRCNRHVESVDKRHCSLQAVPEEIYRYSRSLEELLLDANQLRELPKPFFRLLNLRKLGLSDNEIQRLPPEVANFMQLVELDVSRNDIPEIPESIKFCKALEIADFSGNPLSRLPDGFTQLRSLAHLALNDVSLQALPGDVGNLANLVTLELRENLLKSLPASLSFLVKLEQLDLGGNDLEVLPDTLGALPNLRELWLDRNQLSALPPELGNLRRLVCLDVSENRLEELPAELGGLVLLTDLLLSQNLLRRLPDGIGQLKQLSILKVDQNRLCEVTEAIGDCENLSELILTENLLMALPRSLGKLTKLTNLNVDRNHLEALPPEIGGCVALSVLSLRDNRLAVLPPELAHTTELHVLDVAGNRLQSLPFALTHLNLKALWLAENQAQPMLRFQTEDDARTGEKVLTCYLLPQQPPPSLEDAGQQGSLSETWSDAPPSRVSVIQFLEAPIGDEDAEEAAAEKRGLQRRATPHPSELKVMKRSIEGRRSEACPCQPDSGSPLPAEEEKRLSAE
notes: Scribble, LAP unique region (sLUR): LRR domain of 17 LRRs, LAPSDa and LAPSDb; the discussion calls the tag mGFP; also called full-length sLUR; source: DLD20-2 cells (LAP protein-deficient DLD1), transfected clones, in lysate
stoichiometry N: 2
